Source: publication PMC6159521

Target: His-DnaNCg (Corynebacterium glutamicum sliding clamp, beta-clamp), purified (Corynebacterium glutamicum)
Assay: BLI

Row | Substance | Kd [nM]
1 | EndoMSCg D144A mutant protein (enzyme) | 182
2 | EndoMSCg (Corynebacterium glutamicum EndoMS/NucS), wild type, purified untagged protein (enzyme) | 185
